Non-standard residues stand in square brackets, D forms with d. No end group written: not given here. *: point of attachment. Phe(F5) = N[C@@H](Cc1c(F)c(F)c(F)c(F)c1F)C(=O)O; Desaminotyrosyl = O=C(CCc1ccc(O)cc1)*; NMeY = CN[C@@H](Cc1ccc(O)cc1)C(=O)O; Nle = CCCC[C@H](N)C(=O)O; Orn = NCCC[C@H](N)C(=O)O; Abu = CC[C@H](N)C(=O)O; GABA = NCCCC(=O)O
T1: GHRH receptor of human pituitary membranes (human, UniProt Q02643)
T1 sequence: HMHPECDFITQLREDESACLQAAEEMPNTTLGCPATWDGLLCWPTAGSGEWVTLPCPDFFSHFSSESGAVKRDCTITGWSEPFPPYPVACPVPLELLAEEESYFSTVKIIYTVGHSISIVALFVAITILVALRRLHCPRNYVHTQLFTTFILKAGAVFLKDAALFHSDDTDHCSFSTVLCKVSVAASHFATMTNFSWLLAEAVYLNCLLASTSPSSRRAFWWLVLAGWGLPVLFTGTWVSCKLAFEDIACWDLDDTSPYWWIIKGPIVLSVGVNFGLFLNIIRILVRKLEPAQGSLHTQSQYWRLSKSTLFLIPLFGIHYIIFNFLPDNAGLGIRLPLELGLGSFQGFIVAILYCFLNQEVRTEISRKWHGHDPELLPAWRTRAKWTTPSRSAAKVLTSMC


Assays:
[1] = target: T1, GHRH receptor of human pituitary …; test: competition vs 125I-[His1,Nle27]hGHRH(1-32)NH2, human pituitary membranes
Excerpt: Normal human pituitary was purchased from the National Hormone and Peptide Program (UCLA Medical Center, Torrance, Calif.).

[2] = target: T1, GHRH receptor of human pituitary …; test: competition vs 125I-JV-1-42, human pituitary membranes;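 also: pituitaries used were normal human glands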
Excerpt: Normal human pituitaries were purchased from the National Hormone and Peptide Program (A.F. Parlow, Los Angeles, County Harbor-UCLA Medical Center, Torrance, Calif.).

Row | Binder | IC50 [1] [nM] | relative affinity (binding potency) compared to JI-38 [1] [vs JI-38=1] | relative affinity (binding potency) compared to hGHRH(1-29) [1] | IC50 [2] [nM] | relative affinity (binding potency) vs JI-38 [2] [vs JI-38=1]
1 | [Desaminotyrosyl][dA]DAIFTNSYR[Orn]VL[Abu]QLSAR[Orn]LLQDI[Nle]DR-NHMe (SMILES CCCC[C@H](NC(=O)[C@@H](NC(=O)[C@H](CC(=O)O)NC(=O)[C@H](CCC(N)=O)NC(=O)[C@H](CC(C)C)NC(=O)[C@H](CC(C)C)NC(=O)[C@H](CCCN)NC(=O)[C@H](CCCNC(=N)N)NC(=O)[C@H](C)NC(=O)[C@H](CO)NC(=O)[C@H](CC(C)C)NC(=O)[C@H](CCC(N)=O)NC(=O)[C@H](CC)NC(=O)[C@H](CC(C)C)NC(=O)[C@@H](NC(=O)[C@H](CCCN)NC(=O)[C@H](CCCNC(=N)N)NC(=O)[C@H](Cc1ccc(O)cc1)NC(=O)[C@H](CO)NC(=O)[C@H](CC(N)=O)NC(=O)[C@@H](NC(=O)[C@H](Cc1ccccc1)NC(=O)[C@@H](NC(=O)[C@H](C)NC(=O)[C@H](CC(=O)O)NC(=O)[C@@H](C)NC(=O)CCc1ccc(O)cc1)[C@@H](C)CC)[C@@H](C)O)C(C)C)[C@@H](C)CC)C(=O)N[C@@H](CC(=O)O)C(=O)N[C@@H](CCCNC(=N)N)C(=O)NC) [P-27400 [Dat^1, D-Ala^2, Orn^12, Abu^15, Orn^21, Nle^27, Asp^28]hGHRH(1-29)NH-CH3] | – | – | – | 3.35 | 1.3
2 | YADAIFTNSYRKVLGQLSARKLLQDIMSRQ (N-Me-Tyr^1; D-Ala^2; Fpa5^6; Orn^12; Abu^15; Orn^21; Nle^27; Gab^30 (in place of Gln^30); C-terminal -NH-CH3) [P-27414 [N-Me-Tyr^1, D-Ala^2, Fpa5^6, Orn^12, Abu^15, Orn^21, Nle^27, Gab^30]hGHRH(1-30)NH-CH3] | – | – | – | 1.56 | 2.79
3 | YADAIFTNSYRKVLGQLSARKLLQDIMSRQ (N-Me-Tyr^1; Orn^12; Abu^15; Orn^21; Nle^27; Gab^30 (in place of Gln^30); C-terminal -NH-CH3) [P-27415 [N-Me-Tyr^1, Orn^12, Abu^15, Orn^21, Nle^27, Gab^30]hGHRH(1-30)NH-CH3] | – | – | – | 3.02 | 1.44
4 | [Desaminotyrosyl]ADAIFTQSYH[Orn]VL[Abu]QLSAH[Orn]LLQDI[Nle]DR-NHMe (SMILES CCCC[C@H](NC(=O)[C@@H](NC(=O)[C@H](CC(=O)O)NC(=O)[C@H](CCC(N)=O)NC(=O)[C@H](CC(C)C)NC(=O)[C@H](CC(C)C)NC(=O)[C@H](CCCN)NC(=O)[C@H](Cc1c[nH]cn1)NC(=O)[C@H](C)NC(=O)[C@H](CO)NC(=O)[C@H](CC(C)C)NC(=O)[C@H](CCC(N)=O)NC(=O)[C@H](CC)NC(=O)[C@H](CC(C)C)NC(=O)[C@@H](NC(=O)[C@H](CCCN)NC(=O)[C@H](Cc1c[nH]cn1)NC(=O)[C@H](Cc1ccc(O)cc1)NC(=O)[C@H](CO)NC(=O)[C@H](CCC(N)=O)NC(=O)[C@@H](NC(=O)[C@H](Cc1ccccc1)NC(=O)[C@@H](NC(=O)[C@H](C)NC(=O)[C@H](CC(=O)O)NC(=O)[C@H](C)NC(=O)CCc1ccc(O)cc1)[C@@H](C)CC)[C@@H](C)O)C(C)C)[C@@H](C)CC)C(=O)N[C@@H](CC(=O)O)C(=O)N[C@@H](CCCNC(=N)N)C(=O)NC) [P-27413 [Dat^1, Gln^8, His^11, Orn^12, Abu^15, His^20, Orn^21, Nle^27, Asp^28]hGHRH(1-29)NH-CH3] | – | – | – | 2.45 | 1.78
5 | [NMeY][dA]DAIFTNSYR[Orn]VL[Abu]QLSAR[Orn]LLQDI[Nle]DR-NHEt [P-28421 [N-Me-Tyr^1, D-Ala^2, Orn^12, Abu^15, Orn^21, Nle^27, Asp^28]hGHRH(1-29)NH-CH2-CH3] | 3.05 | 0.9 | 2.5 vs hGHRH(1-29)NH2=1 | 1.47 | 2.96
6 | [Desaminotyrosyl]ADAIFTQSYR[Orn]VL[Abu]QLSAR[Orn]LLQDI[Nle]DR-NHMe (SMILES CCCC[C@H](NC(=O)[C@@H](NC(=O)[C@H](CC(=O)O)NC(=O)[C@H](CCC(N)=O)NC(=O)[C@H](CC(C)C)NC(=O)[C@H](CC(C)C)NC(=O)[C@H](CCCN)NC(=O)[C@H](CCCNC(=N)N)NC(=O)[C@H](C)NC(=O)[C@H](CO)NC(=O)[C@H](CC(C)C)NC(=O)[C@H](CCC(N)=O)NC(=O)[C@H](CC)NC(=O)[C@H](CC(C)C)NC(=O)[C@@H](NC(=O)[C@H](CCCN)NC(=O)[C@H](CCCNC(=N)N)NC(=O)[C@H](Cc1ccc(O)cc1)NC(=O)[C@H](CO)NC(=O)[C@H](CCC(N)=O)NC(=O)[C@@H](NC(=O)[C@H](Cc1ccccc1)NC(=O)[C@@H](NC(=O)[C@H](C)NC(=O)[C@H](CC(=O)O)NC(=O)[C@H](C)NC(=O)CCc1ccc(O)cc1)[C@@H](C)CC)[C@@H](C)O)C(C)C)[C@@H](C)CC)C(=O)N[C@@H](CC(=O)O)C(=O)N[C@@H](CCCNC(=N)N)C(=O)NC) [P-27407 [Dat^1, Gln^8, Orn^12, Abu^15, Orn^21, Nle^27, Asp^28]hGHRH(1-29)NH-CH3] | – | 0.54 | 1.52 vs hGHRH(1-29)NH2=1 | 3 | 1.45

Stronger by IC50 [2], values ahead:

Row | IC50 [1] [nM] | relative affinity (binding potency) compared to JI-38 [1] [vs JI-38=1] | relative affinity (binding potency) compared to hGHRH(1-29) [1] | IC50 [2] [nM] | relative affinity (binding potency) vs JI-38 [2] [vs JI-38=1] | Binder
7 | 2.7 | 1.01 | 2.83 vs hGHRH(1-29)NH2=1 | 0.52 | 8.37 | [NMeY][dA]DAIFTQSYR[Orn]VL[Abu]QLSAR[Orn]LLQDI[Nle]DR-NHEt [P-28420 [N-Me-Tyr^1, D-Ala^2, Gln^8, Orn^12, Abu^15, Orn^21, Nle^27, Asp^28]hGHRH(1-29)NH-CH2-CH3]
8 | – | 1.09 | 3.04 vs hGHRH(1-29)NH2=1 | 1.08 | 4.03 | [NMeY]ADAIFTQSYR[Orn]VL[Abu]QLSAR[Orn]LLQDI[Nle]SR-NHMe [P-27405 [N-Me-Tyr^1, Gln^8, Orn^12, Abu^15, Orn^21, Nle^27]hGHRH(1-29)NH-CH3]
9 | – | – | – | 1.22 | 3.57 | [NMeY]ADAIFTQSYR[Orn]VL[Abu]QLSAR[Orn]LLQDI[Nle]SRQ-{GABA-NH2} [P-29703 [N-Me-Tyr^1, Gln^8, Orn^12, Abu^15, Orn^21, Nle^27, Gln-Gab^30]hGHRH(1-30)NH2]
10 | 1.01 | 2.71 | 7.57 vs hGHRH(1-29)NH2=1 | 1.06 | 4.1 | [NMeY][dA]DAIFTNSYR[Orn]VL[Abu]QLSAR[Orn]LLQDI[Nle]DR-NHMe [P-27409 [N-Me-Tyr^1, D-Ala^2, Orn^12, Abu^15, Orn^21, Nle^27, Asp^28]hGHRH(1-29)NH-CH3]
11 | – | 2.95 | 8.22 vs hGHRH(1-29)NH2=1 | 0.3 | 14.5 | [NMeY]ADAIFTQSYR[Orn]VL[Abu]QLSAR[Orn]LLQDI[Nle]DR-NHMe [P-27406 [N-Me-Tyr^1, Gln^8, Orn^12, Abu^15, Orn^21, Nle^27, Asp^28]hGHRH(1-29)NH-CH3]
12 | – | 2.45 | 6.83 vs hGHRH(1-29)NH2=1 | 0.87 | 5 | [NMeY][dA]DAI[Phe(F5)]TNSYR[Orn]VL[Abu]QLSAR[Orn]LLQDI[Nle]DR-NHMe [P-27404 [N-Me-Tyr^1, D-Ala^2, Fpa5^6, Orn^12, Abu^15, Orn^21, Nle^27, Asp^28]hGHRH(1-29)NH-CH3]
13 | 1.28 | 2.14 | 5.98 vs hGHRH(1-29)NH2=1 | 0.83 | 5.24 | [NMeY][dA]DAIFTTSYR[Orn]VL[Abu]QLSAR[Orn]LLQDI[Nle]DR-NHMe [P-27410 [N-Me-Tyr^1, D-Ala^2, Thr^8, Orn^12, Abu^15, Orn^21, Nle^27, Asp^28]hGHRH(1-29)NH-CH3]
